According to a protein production outcome set (Wang et al. 2014):

Assay: label from the status in PepcDB records

**Q.** With “MASSKELCSIREWAPLTEVIERIPARLQRGFFPANLNLTCVDATEEFLAMGSDAGIVFWYNRHTGEMQKLKAEVATRITCVRVVNSVEYMVAAGCANGQVSIFQIQKELPRDLDLVAPCTKSRPIERYTIRDLHKCVVSCCEWSKNGMKLYSGDRQGVVVLTELDYQAHLSKSVEILSEAYEIVQLSVRQSYLLVATLYRCIVCQMDAQTSQWNITQVGKKDRKQLIDCGAIFLKKQEANKPQLVCGRPGLRFWVADAAGNVSKTVIFRDAVLRSPTWEIPILNPKQRSEPSGTHHTSASTSSTRHSGLADGDVGYVASSNFRQLYLYDGHDSLLVTHDDATLYVLNLDRLKVEAVARGLRKILDFCVCGKEIFVLEGNRTLLRLAPLPEPPNKTAKVIFNPLMPPPVPVLGSHLSQLESPIELQAEPVLQNAEECFELSPVEQLNLNVPIEIAVESPLTQQNRRLEIFRRIGEMDFEQSIVHTTRKTSVGKPPEASGVGIVEIGHETHELRLPLTNAATLMEASYCQMENNGLASPLDMKAAFLQHLPDALSPTTLQKTVAEKAKTLAAELDLPEVHLAPLSQEELHAVQAQTPQISDPLIRCYPTHLEEASIQTSSRENATNPADDYHVGEPVDGIRSFGVSKRKMAPLKFVLSQPKPTLKLEENRDDEEYTSFLPDFRRAGDPLAIHKETPATSDSNTSSEWEFLDN” as the sequence, how does the protein production read?
**A.** Its protein production is “failed”.

**Q.** For “MKVAIMGAGAVGCYYGGMLARAGHEVILIARPQHVQAIEATGLRLETQSFDEQVKVSASSDPSAVQGADLVLFCVKSTDTQSAALAMKPALAKSALVLSLQNGVENADTLRSLLEQEVAAAVVYVATEMAGPGHVRHHGRGELVIEPTSHGANLAAIFAAAGVPVETSDNVRGALWAKLILNCAYNALSAITQLPYGRLVRGEGVEAVMRDVMEECFAVARAEGVKLPDDVALAIRRIAETMPRQSSSTAQDLARGKRSEIDHLNGLIVRRGDALGIPVPANRVLHALVRLIEDKQQHG”, which protein production is on record?
**A.** Its protein production is “not failed”.

**Q.** With “MIDLKKIKRFAQEIHDKNNDGHGFDHIERVVALARKILLTEPSANQELVLATYLHDTYDEKLTDDVPKQKVKVAQFLNELKIDKKLIDELFMIIDNMSFSSNLIERKTLSLNGQIVQDADRLDAMGAWGIVRTLEYGWAKNRVFYDPNLPPLDYNSKEDYHSQKNNSTLNHFYEKLFLLKDLLNTTEGKRLGEKRDKIMHLFVSQIEEEYKETHLLEHHHHHH” as the sequence, how does the protein production read?
**A.** The protein production was “failed”.

**Q.** For “MREVKLVTFDVWNTLLDLNIMLDEFSHQLAKISGLHIKDVANAVIEVRNEIKKMRAQASEDPRKVLTGSQEALAGKLKVDVELVKRATARAILNVDESLVLEGTKEALQFVKERGLKTAVIGNVMFWPGSYTRLLLERFGLMEFIDKTFFADEVLSYKPRKEMFEKVLNSFEVKPEESLHIGDTYAEDYQGARKVGMWAVWINQEGDKVRKLEERGFEIPSIANLKDVIELISKT”, which protein production is on record?
**A.** Its protein production is “not failed”.

**Q.** Which protein production does the source give for “MAVSSLGNIYCAAAGFHSVPIVICQTSCVRWRGSGRTSGAICCAECVARGSDVRAYFRGQDKDAVGKDAVAPGVGCVQPVAIGIHAGLYRWRDRLRIGIDGDHARCRPDVAHGELDVGASAVPRRGSHGHRGRARAGGLVQELSVREQPPVDHRHLRAVLRLAGAAALLTQGRNAQGAVRELVCARYRHAVSGPRQPQGRGTGATSGGCVVAPGQTVVSVSRRHPQPHRRIIAIQGRATAGCYRCWRAGGSGGAGRLRQGVAGRWPVQGAPRHHPRADRYADRCDRAGCAGSPTIDRAGTQGRGCNASPQDLSSTLMDFVVPHDHPCLPGHFPGRPVVPGVVVLDHVLQAVEALHGPRAAARLPQVKFVQPLLPGQTASVTLEGDGPRWRFRVQRADVVLVSGELVAEAGT” here?
**A.** Its protein production is “failed”.

**Q.** For “MSPIEKSSKLENVCYDIRGPVLKEAKRLEEEGNKVLKLNIGNPAPFGFDAPDEILVDVIRNLPTAQGYCDSKGLYSARKAIMQHYQARGMRDVTVEDIYIGNGVSELIVQAMQALLNSGDEMLVPAPDYPLWTAAVSLSSGKAVHYLCDESSDWFPDLDDIRAKITPRTRGIVIINPNNPTGAVYSKELLMEIVEIARQHNLIIFADEIYDKILYDDAEHHSIAPLAPDLLTITFNGLSKTYRVAGFRQGWMVLNGPKKHAKGYIEGLEMLASMRLCANVPAQHAIQTALGGYQSISEFITPGGRLYEQRNRAWELINDIPGVSCVKPRGALYMFPKIDAKRFNIHDDQKMVLDFLLQEKVLLVQGTAFNWPWPDHFRIVTLPRVDDIELSLSKFARFLSGYHQL”, which protein production is on record?
**A.** The protein production was “failed”.

**Q.** With “MVAGRRKVVPGLVLLCLGALLARSLSVLIGINELLLAIALGAVLVNTVGIPERFRHGTATYNIWLAAGIVLLGSSLTVGMIIEVGATVLLLLVAAVTLTLVTVEVLARNVAGVTDRFGSLLAAGAGICGVSAVAAVGGAVRAKEMHIAYAAGVVLLVDAVTIVVYPIVGAVLDLPDVVFGVWAGVSMLSTGPVVAVGFAHSEVAGQWATITKLARNALIGVVALGYASYYARRGAGGSTSVRMLWENFPKFVLGFLVLVGLASLGAFSPAQQDMISTVVDWLFLLAFVGLGTQIRTAELRATGITPALIVFAAVLLVSVLSLAAALVVL” as the sequence, how does the protein production read?
**A.** The protein production was “failed”.

**Q.** For “MIRVMATGVFDILHLGHIHYLKESKKLGDELVVVVARDSTARNNGKIPIFDENSRLALISELKVVDRAILGHEGDMMKTVIEVKPDIITLGYDQKFDEAELQSKINKLGITVKIVRISKYDGQLNSSSSVRKKIMELIGERY”, which protein production is on record?
**A.** The protein production was “not failed”.

**Q.** With “MSGITMAMRGPRLEFAVGAFLLLTLASLLVLAVASTNQRWGFGSSQYTLTARFSQIGQLRAQAPVKIGGVTIGKVSDISLDPTKFDSIVTLSLDTRYKDLPADTSAGIFTSGLLGESYIGLQPGGDPDTLKPGDEIGFTQPAVDLLQLVGKYMFSGGGSGSNANVPAATNGQAPAPARTAPPPTEPHQ” as the sequence, how does the protein production read?
**A.** Its protein production is “failed”.

**Q.** With “MTNLDEFLEELSSIESHSQKIVKIDEHLKKLDEETKEDEDEDAAKIIQDRSTAREAEIALLMDLRQNFLPPPSMSSSSLQPPSSSTLAPSSSSSLQPPAPLIDFFRSSVSYSHQPPSSSTLATSSSPSLQPPSMSSSSLQPPASLREFFTSSVSYSHQPSSSSTLATSSFFPSSMPYSVRPPDSSDRPSLREFFPSSPSSSIQPPESSSSKRARLSNIFPSPLSSSPSPFVNPFLRPQAQEPTIPNFINPIPQISPGLPALFPNPNPNPNPNPIPNPIRNPDLVWTNRLQLVFDDAVVRLGGLFSATPKAINELISEEGLTGDQIRSHLQVLRDRQKAIADKLALE” as the sequence, how does the protein production read?
**A.** Its protein production is “failed”.

**Q.** For “AEEKVKDEAMQIMGMFQILPRLVVFDLDYTLWPFYCECRSKREMPSMYPQAKGILSALKEKGIEMAIASRSPTSDIANTFLDKLNIKPMFVAKVSKMGVTSILVGDGVTLGAFRQGLTEFTQNHNSIEKNKQVWRDKYSG”, which protein production is on record?
**A.** Its protein production is “failed”.

**Q.** For “MSDSKSHDPNQMTGAAMIVRAMIDHGVEHIFGYPGGSVLPIYDELFQNSEKLQHILVRHEQGAGHAAEGYARSTGKPGVVLVTSGPGATNMVTPLADALMDSIPIVCITGQVPTHLIGNDAFQECDTVGITRPCTKHNWLVRDIKDLARVLHEAFYVATSGRPGPVVVDVPKDVQFATGTYHPPRKSDVHVSYTPRLKGDPGQIRKAVALLASAKKPVIYSGGGVVNSGEEAWKLLRELVEVTDFPITSTLMGLGAYPASGKNWLGMLGMHGTYESNMTMHDCDVMLCIGARFDDRITGRTDAFSPNSKKIHIDIDPSSINKNIRVDVPIIGDVAHVLADLLAAFKAEAKKADTKAWWLQIAAWRGRNSLAYKKNNDVILPQYAIERLYAATRGRDTYITTEVGQHQMWAAQFYGFERPRRWMTSGGLGTMGYGLPAALGVQVAHPDSLVIDIAGDASVQMTMQEMATAVQYELPIKIFILNNQYMGMVRQWQQLLHGNRLSHSYTEAMPDFVKLADAYGGVGMQVFKPSDLDGAIQDMIKVKKPVLFDCRVASLENCFPMIPSGKAHNEMLLPSEANDETTAAAFAGGGALV”, which protein production is on record?
**A.** The protein production was “failed”.

**Q.** For “MASNEAGRALPKFGEWDVNDPATADGFTVIFSKAGEDKKTGRSSTKTNSQRKQDGDKPAVKKWLCFTFA”, which protein production is on record?
**A.** The protein production was “not failed”.

**Q.** For “MQDILFDFISTYISLTEDEKNALLSLDLFRSVPKGTILLKEGQKSQESYFVLKGCIRIYYIIDGEEKTTAFYTEMDALTPPCVIHNAPSEYFISCIEDSILTVSNLEMEAEINSKFPKFELMCRMLSEELLAKQQIDFDAFKTSSPEQRYLNVLQNRPDLIQRVPQHQLASFLGIKPQSLSRLRARIVDKKS”, which protein production is on record?
**A.** The protein production was “not failed”.

**Q.** For “HLGEVQSEVVRFAVRFPSDKEQSSLLIDADAPVYDFVRLRLLNGEPVSLDLTVMPVGLVPGLTKSHLEGSVFRYVQETLGLKLMGSYRVVRAMKPGELDKQHLHCEPTDPVLEVEQVIYLEDGTPLEYAHCHYRYDHGG”, which protein production is on record?
**A.** Its protein production is “not failed”.
